No end group written: not given here. *: point of attachment. Biotin = O=C1N[C@H]2[C@H](CS[C@H]2CCCCC(=O)*)N1

The target of test [1] is Magi1 (UniProt Q4L1J4). In words: proximity ligation assay. Conditions: reference: no treatment; sites S1242.
Test [2] addresses Pdlim5 (UniProt Q62920). Put plainly: proximity ligation assay. Particulars: reference: no treatment; sites S1242.
The target of test [3] is Pdlim5 PDZ domain (UniProt Q96HC4). Put plainly: PDZ-domain microarray probed with biotinylated peptide.
Test [4] concerns the target Erbin PDZ domain (UniProt Q96RT1). The description is as above. Conditions: reference: unphosphorylated peptide; sites S1242,S1245.
The target in test [5] is endogenous delta-catenin of rat hippocampal neurons (rat (endogenous in primary hippocampal neurons)) (UniProt O35116). In words: proximity ligation.
For test [6], the target named is GST fusion of the PDZ domain of Erbin (array) (human, UniProt Q96RT1 1321-1410). In words: peptide or protein array.
GST fusion of the PDZ domain of Erbin (array), sequence (Q96RT1 1321-1410): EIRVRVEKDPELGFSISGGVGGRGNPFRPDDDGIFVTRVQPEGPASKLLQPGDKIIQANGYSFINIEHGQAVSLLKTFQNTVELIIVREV

endogenous delta-catenin of rat hippocampal neurons (rat (endogenous in primary hippocampal neurons)), sequence (O35116 whole entry, stated change not applied, the tested form may be a part): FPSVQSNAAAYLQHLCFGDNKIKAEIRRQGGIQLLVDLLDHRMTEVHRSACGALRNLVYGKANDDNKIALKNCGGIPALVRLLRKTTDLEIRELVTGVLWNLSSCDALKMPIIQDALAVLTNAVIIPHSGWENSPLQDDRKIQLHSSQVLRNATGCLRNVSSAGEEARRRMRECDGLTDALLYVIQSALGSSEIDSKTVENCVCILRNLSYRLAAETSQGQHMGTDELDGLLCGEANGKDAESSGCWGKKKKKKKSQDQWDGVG
Magi1, sequence (Q4L1J4 whole entry, looked up): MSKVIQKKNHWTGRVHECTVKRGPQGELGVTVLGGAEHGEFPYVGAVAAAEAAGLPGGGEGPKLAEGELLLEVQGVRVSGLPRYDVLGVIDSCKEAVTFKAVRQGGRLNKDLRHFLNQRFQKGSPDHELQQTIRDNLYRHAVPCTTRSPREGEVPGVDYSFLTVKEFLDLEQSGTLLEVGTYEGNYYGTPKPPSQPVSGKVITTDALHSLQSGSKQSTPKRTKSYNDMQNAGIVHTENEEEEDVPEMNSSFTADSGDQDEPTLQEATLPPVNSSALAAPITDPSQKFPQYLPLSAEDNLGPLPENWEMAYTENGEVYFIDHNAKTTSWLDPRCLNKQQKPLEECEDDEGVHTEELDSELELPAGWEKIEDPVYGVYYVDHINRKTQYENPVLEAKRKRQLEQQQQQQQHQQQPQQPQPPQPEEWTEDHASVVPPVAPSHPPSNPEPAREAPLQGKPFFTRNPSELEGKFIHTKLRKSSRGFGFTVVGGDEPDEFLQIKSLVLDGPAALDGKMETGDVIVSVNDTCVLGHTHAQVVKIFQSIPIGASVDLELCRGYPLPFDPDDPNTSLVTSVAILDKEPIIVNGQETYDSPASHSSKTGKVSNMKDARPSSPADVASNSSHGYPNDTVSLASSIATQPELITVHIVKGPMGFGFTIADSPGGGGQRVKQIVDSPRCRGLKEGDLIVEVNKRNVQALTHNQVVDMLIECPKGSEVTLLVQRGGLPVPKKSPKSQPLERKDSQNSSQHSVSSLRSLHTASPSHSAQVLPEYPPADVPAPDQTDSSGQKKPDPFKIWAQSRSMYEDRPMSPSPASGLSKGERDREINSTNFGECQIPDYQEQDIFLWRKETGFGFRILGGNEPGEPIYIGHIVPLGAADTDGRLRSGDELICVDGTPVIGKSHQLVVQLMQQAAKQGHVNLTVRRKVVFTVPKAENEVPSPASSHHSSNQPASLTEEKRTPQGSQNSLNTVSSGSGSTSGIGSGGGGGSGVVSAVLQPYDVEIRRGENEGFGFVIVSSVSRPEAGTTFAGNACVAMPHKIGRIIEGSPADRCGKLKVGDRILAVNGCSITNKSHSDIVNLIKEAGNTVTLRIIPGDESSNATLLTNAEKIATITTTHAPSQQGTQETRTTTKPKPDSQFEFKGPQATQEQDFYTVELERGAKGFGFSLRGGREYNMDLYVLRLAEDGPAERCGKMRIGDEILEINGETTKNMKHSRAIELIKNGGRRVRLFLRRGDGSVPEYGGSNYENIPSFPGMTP

For the molecule delta-catenin 20 µM DHPG, 10 min, the “other: PLA puncta per cell” value was “weaker; reference 21.15 ± 7.24” in test [1] and “stronger; reference 20.46 ± 1.41” in test [2].
Turning to “delta-catenin C-terminal PDZ-binding motif (from UniProt O35927) pS1242 + pS1245 peptide”, the “binding against the reference” value in test [3] (reference: pS1242-only peptide, sites S1245) is “stronger”; in test [3] (reference: pS1245-only peptide, sites S1242) it was “stronger”.
Take “delta-catenin C-terminal PDZ-binding motif (from UniProt O35927) phosphorylated peptide (doubly phosphorylated probe assumed)”: the “binding against the reference” value in test [4] was “same”.
Consider “endogenous Magi1 of rat hippocampal neurons (from UniProt Q4L1J4 1-1255) (natural protein)”, for which, in test [5], the PLA puncta per cell (20 µM DHPG, 10 min) turned out to be 8.95 puncta/cell; the PLA puncta per cell (no treatment) was determined as 21.1 puncta/cell; the PLA puncta per neuron (puncta per neuron) was 16.

B1: endogenous Pdlim5 of rat hippocampal neurons (natural protein)
chain: MSNYNVSLVGPAPWGFRLQGGKDFNMPLTISSLKDGGKASQAHVRIGDVVLSIDGISAQGMTHLEAQNKIKACTGSLNMTLQRASAAAKSEPVAVQKGEPKEVVKPVPITSPAVSKVTSTTNMAYNKVPRPFGSVSSPKVTSIPSPSSAFTPAHAATSSHASPPPVAAVTPPPLSASGLHASANPSAAQCSSPPNTGKPAVHVPRQPTVTSVCSESAQELAEGQRRGSQGDIKQQNGPPRKHIVERNTEFYHIPTHSDASKKRLIEDTEDWRPRTGTTQSRSFRILAQITGTEHLKESENDNAKKANSTPEPSQQSASPLSAAESLESPGSNRPVVAGLRSAAAFKPVGSTSVKSPSWQRPNQAAPSTGRISNSASSSGTGAPMKPAVGPPQPSDQDTLVQRAEHIPAGKRTPMCAHCNQAIRGPFLVALGKSWHPEEFNCAHCKNTMAYIGFVEEKGALYCELCYEKFFAPECGRCQRKILGEVINALKQTWHVSCFVCVACGKPIRNNVFHLEDGEPYCETDYYALFGTICRGCEFPIEAGDMFLEALGSTWHDTCFVCSVCCESLEGQTFFSKKDKPLCKKHAHSVNF
For B1, in test [5], the PLA puncta per cell (20 µM DHPG, 10 min) turned out to be 54.2 puncta/cell; the PLA puncta per cell (no treatment) turned out to be 20.5 puncta/cell; the PLA puncta per neuron (puncta per neuron) was 37.7.
On to Biotin-TSHYPASPDSWV [delta-catenin PDZ-binding motif peptide, De-Phospho (Biotin-TSHYPASPDSWV)], for which the binding result in test [6] is reported as “binds”.
